Measured values reported in patent publication US20170226225A1 (Merck Sharp & Dohme, published 2017).

What was measured:
[1] = biological target: T1, cynomolgus monkey FXI zymogen (cynomolgus monkey, UniProt A0A2K5VVW4 19-624); test: SPR (ProteOn XPR36), antibody captured by anti-human IgG, FXI as analyte; mean ± SD, N=3
T1 construct: also called NHP FXI zymogen (cynomolgus)
Procedure: (§1) 1 M ethanolamine HCl is then injected across all six vertical flow channels to neutralize remaining reactive surface amines. The anti-FXI antibodies are then injected at 25 μL/minutes for 60 seconds, each into a distinct vertical flow channel coated with capture antibody (L2, L3, L4, L5, or L6), at a concentration of 5 μg/mL in 10 mM sodium acetate, pH 5.0, to achieve saturating capture levels of approximately 80 RU; vertical flow channel L1 is injected with 10 mM sodium acetate, pH 5.0 (buffer alone), as a reference control. After capture of anti-FXI antibodies, running buffer (1×HBS-N, 5 mM CaCl₂, 0.005% P20, pH 7.4) is injected across all horizontal flow channels (A1-A6) for 5 minutes and allowed to dissociate for 20 minutes at 25 μL/minutes to remove any non-specifically bound anti-FXI antibodies from the chip surface. To measure on-rate (kₐ) of human FXI to captured anti-FXI antibodies, a 6-point titration of human FXI zymogen (0, 0.25, 0.5, 1.0, 2.0, 4.0 nM diluted in running buffer) is subsequently injected horizontally across all six vertical flow channels for 8 minutes; the bound zymogen is then allowed to dissociate for 60 minutes in running buffer at 25 μL/min to measure off-rate (kd). Binding kinetics and affinity (KD) may be determined using instrument-specific software (Bio-Rad).
(§2) A GLC low-density sensor chip is washed across all vertical and horizontal flow channels with 0.5% sodium dodecyl-sulfate, 50 mM sodium hydroxide, and 100 mM hydrochloric acid for 60 seconds at 30 μL/second flow rate.

[2] = biological target: T2, rhesus monkey FXI zymogen (rhesus monkey, UniProt F6PJ95 19-624); test: as above
T2 construct: also called NHP FXI zymogen (rhesus)
Procedure: as §1, §2

[3] = biological target: T3, human coagulation Factor XI (FXI) zymogen (human, UniProt P03951 19-625); test: as above
T3 construct: Homodimeric zymogen; also called Human FXI; human Factor XI
Procedure: as §1, §2

human FXIa = human FXIa (human, UniProt P03951 19-625); test: SPR (ProteOn XPR36), antibody captured by anti-human IgG, FXIa as analyte; mean ± SD, N=3
cynomolgus monkey FXIa = cynomolgus monkey FXIa (cynomolgus monkey, UniProt A0A2K5VVW4 19-624); test: as above
[4] = biological target: T1, cynomolgus monkey FXI zymogen; test: cell-based or functional assay
[5] = biological target: T2, rhesus monkey FXI zymogen; test: cell-based or functional assay
[6] = biological target: T3, human coagulation Factor XI (FXI) …; test: cell-based or functional assay
[7] = biological target: T3, human coagulation Factor XI (FXI) …; test: cell-based or functional assay; remark: listed apart in the source

Binder	Kd [1] [pM]	Kd [2] [pM]	Kd [3] [pM]	Kd (human FXIa) [pM]	Kd (cynomolgus monkey FXIa) [pM]	aPTT in cynomolgus monkey plasma: concentration that prolongs clotting time by 50% (1.5x) [4] [nM]	aPTT in rhesus monkey plasma: concentration that prolongs clotting time by 50% (1.5x) [5] [nM]	aPTT in human plasma: concentration that prolongs clotting time by 50% (1.5x) [6] [nM]	FXIa Activation Inhibition (EC50, nM); autoactivation of FXI on dextran sulfate, Z-GPR-AFC cleavage [7] [nM]
αFXI-13716-IgG4 (S228P) Q1E M103L (K-)/kappa (antibody, V domains shown, Human IgG4 S228P heavy chain with Q1E and M103L, lacking the C-terminal lysine; kappa light chain) VH: EVQLVQSGAEVKKPGASVKVSCKASGYTFTSYSMHWVRQAPGQGLEWMGIINPSGGSTSYAQKFQGRVTMTRDTSTSTVYMELSSLRSEDTAVYYCARGAYLLELYYYYGMDVWGQGTTVTVSS VL: EIVMTQSPATLSVSPGERATLSCRASQSVSSNLAWYQQKPGQAPRLLIYGASTRATGIPARFSGSGSGTEFTLTISSLQSEDFAVYYCQQFNDWPLTFGGGTKVEIKR	6.9	2	2.5	1.1	3.3	21.1	17.4	20.9	11
αFXI-13716p-IgG4 (S228P) (K-)/kappa (antibody, V domains shown, Human IgG4 S228P heavy chain lacking the C-terminal lysine; kappa light chain; also called α13716p-IgG4 (S228P) (K-)/kappa) VH: QVQLVQSGAEVKKPGASVKVSCKASGYTFTSYSMHWVRQAPGQGLEWMGIINPSGGSTSYAQKFQGRVTMTRDTSTSTVYMELSSLRSEDTAVYYCARGAYLMELYYYYGMDVWGQGTTVTVSS VL: EIVMTQSPATLSVSPGERATLSCRASQSVSSNLAWYQQKPGQAPRLLIYGASTRATGIPARFSGSGSGTEFTLTISSLQSEDFAVYYCQQFNDWPLTFGGGTKVEIKR	7.5	3.1	3.5	1.3	3.7	22.5	19.4	21.6	4
αFXI-13654p-IgG4 (S228P) (K-)/kappa (antibody, V domains shown, Human IgG4 S228P heavy chain lacking the C-terminal lysine; kappa light chain) VH: EVQLVESGGGLVKPGGSLRLSCAASGFTFSSYSMNWVRQAPGKGLEWVSSISSSSSYIYYADSVKGRFTISRDNAKNSLYLQMNSLRAEDTAVYYCARSYYDYDQGYGMDVWGQGTTVTVSS VL: DIQMTQSPSSVSASVGDRVTITCRASQGISSWLAWYQQKPGKAPKLLIYAASSLQSGVPSRFSGSGSGTDFTLTISSLQPEDFATYYCQQVNSYPITFGGGTKVEIKR	12.9	26.6	26.5	9	2	21.6	25	16.8	10
